Measurements: patent US20060039918A1 (University of California, published 2006)
[ ]: non-standard residue; d: D form. The star is where a group is joined. Biotin = O=C1N[C@H]2[C@H](CS[C@H]2CCCCC(=O)*)N1; code J = not defined here

B1: dnaJP1 peptide (QKRAAYDQYGHAAFE) (peptide)
peptide: Biotin-QKRAAYDQYGHAAFE-NH2
SMILES: C[C@H](NC(=O)[C@H](C)NC(=O)[C@H](Cc1c[nH]cn1)NC(=O)CNC(=O)[C@H](Cc1ccc(O)cc1)NC(=O)[C@H](CCC(N)=O)NC(=O)[C@H](CC(=O)O)NC(=O)[C@H](Cc1ccc(O)cc1)NC(=O)[C@H](C)NC(=O)[C@H](C)NC(=O)[C@H](CCCNC(=N)N)NC(=O)[C@H](CCCCN)NC(=O)[C@H](CCC(N)=O)NC(=O)CCCC[C@@H]1SC[C@@H]2NC(=O)N[C@@H]21)C(=O)N[C@@H](Cc1ccccc1)C(=O)N[C@@H](CCC(=O)O)C(N)=O
notes: Synthetic peptide
B2: PADRE (-) peptide (UAJAAAATLKAA) (peptide)
peptide: Biotin-[code U]A[code J]AAAATLKAA-NH2
modifications: reading uncertain
notes: Synthetic control peptide used to set the background in the T cell capture assay; also called negative control PADRE (-)

Target: T1, HLA DRB1*0401 molecules (biotinylated recombinant HLA-DR4) (human)
T1 construct: Recombinant and biotinylated; also called biotinylated recombinant MHC
Experiment: loading of biotinylated recombinant HLA-DR4 with peptide for aAPCs and tetramers

| Binder | binding result |
| --- | --- |
| B1 | binds |
| B2 | binds |
